Starred links: 1 amine or outer side, 2 acyl side, 3 side chain; linkers in the order of their positions; H or OH if unused. Non-standard residues stand in square brackets, D forms with d. Groups on a side chain read outwards from the residue. No end group written: not given here. *: point of attachment. C20 diacid = O=C(O)CCCCCCCCCCCCCCCCCCC(=O)*; C18 diacid = O=C(O)CCCCCCCCCCCCCCCCC(=O)*; γGlu = O=C(O)[C@H](CCC(=O)[*:2])N[*:1]; εLys = N[C@@H](CCCCN[*:1])C(=O)[*:2]; Aib = CC(C)(N)C(=O)O
Experiments:
[1] = biological target: human GLP-1 receptor (human, UniProt P43220 24-463); assay: cell-based or functional assay
[2] = biological target: T1, human GIP receptor (human, UniProt P48546 22-466); assay: cell-based or functional assay
T1 sequence (looked up): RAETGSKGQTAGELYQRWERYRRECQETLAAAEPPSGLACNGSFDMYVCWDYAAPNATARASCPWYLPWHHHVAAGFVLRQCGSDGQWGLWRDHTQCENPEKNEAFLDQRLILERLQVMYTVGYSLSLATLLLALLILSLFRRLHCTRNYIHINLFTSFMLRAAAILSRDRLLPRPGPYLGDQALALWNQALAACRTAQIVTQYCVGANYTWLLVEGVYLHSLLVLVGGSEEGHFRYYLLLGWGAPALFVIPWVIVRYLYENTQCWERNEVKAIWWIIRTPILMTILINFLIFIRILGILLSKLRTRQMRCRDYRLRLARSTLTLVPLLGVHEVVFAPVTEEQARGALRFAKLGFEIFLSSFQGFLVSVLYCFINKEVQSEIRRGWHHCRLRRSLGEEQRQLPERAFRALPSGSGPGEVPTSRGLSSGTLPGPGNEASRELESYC

Binder	hGLP-1R, CRE Luc 0% HSA EC50 (pM) [1] [pM]	hGLP-1R, CRE Luc 1% HSA EC50 (pM) [1] [pM]	hGIPR, CRE Luc 0% HSA EC50 (pM) [2] [pM]	hGIPR, CRE Luc 1% HSA EC50 (pM) [2] [pM]
Y[Aib]EGTFTSDYSILLEK([εLys-εLys-γGlu-C18 diacid])QAAREFIQWLLAGGPSSGAPPPS-OH (N-terminus assumed; SMILES CC[C@H](C)[C@H](NC(=O)[C@H](Cc1ccccc1)NC(=O)[C@H](CCC(=O)O)NC(=O)[C@H](CCCNC(=N)N)NC(=O)[C@H](C)NC(=O)[C@H](C)NC(=O)[C@H](CCC(N)=O)NC(=O)[C@H](CCCCNC(=O)[C@@H](N)CCCCNC(=O)[C@@H](N)CCCCNC(=O)CC[C@H](NC(=O)CCCCCCCCCCCCCCCCC(=O)O)C(=O)O)NC(=O)[C@H](CCC(=O)O)NC(=O)[C@H](CC(C)C)NC(=O)[C@H](CC(C)C)NC(=O)[C@@H](NC(=O)[C@H](CO)NC(=O)[C@H](Cc1ccc(O)cc1)NC(=O)[C@H](CC(=O)O)NC(=O)[C@H](CO)NC(=O)[C@@H](NC(=O)[C@H](Cc1ccccc1)NC(=O)[C@@H](NC(=O)CNC(=O)[C@H](CCC(=O)O)NC(=O)C(C)(C)NC(=O)[C@@H](N)Cc1ccc(O)cc1)[C@@H](C)O)[C@@H](C)O)[C@@H](C)CC)C(=O)N[C@@H](CCC(N)=O)C(=O)N[C@@H](Cc1c[nH]c2ccccc12)C(=O)N[C@@H](CC(C)C)C(=O)N[C@@H](CC(C)C)C(=O)N[C@@H](C)C(=O)NCC(=O)NCC(=O)N1CCC[C@H]1C(=O)N[C@@H](CO)C(=O)N[C@@H](CO)C(=O)NCC(=O)N[C@@H](C)C(=O)N1CCC[C@H]1C(=O)N1CCC[C@H]1C(=O)N1CCC[C@H]1C(=O)N[C@@H](CO)C(=O)O) [Compound No. 23]	4.1	118	6.7	134
Y[Aib]EGTFTSDYSILLEK([εLys-εLys-γGlu-C18 diacid])QAAREFVNWLLAGGPSSGAPPPS-OH (N-terminus assumed; SMILES CC[C@H](C)[C@H](NC(=O)[C@H](CO)NC(=O)[C@H](Cc1ccc(O)cc1)NC(=O)[C@H](CC(=O)O)NC(=O)[C@H](CO)NC(=O)[C@@H](NC(=O)[C@H](Cc1ccccc1)NC(=O)[C@@H](NC(=O)CNC(=O)[C@H](CCC(=O)O)NC(=O)C(C)(C)NC(=O)[C@@H](N)Cc1ccc(O)cc1)[C@@H](C)O)[C@@H](C)O)C(=O)N[C@@H](CC(C)C)C(=O)N[C@@H](CC(C)C)C(=O)N[C@@H](CCC(=O)O)C(=O)N[C@@H](CCCCNC(=O)[C@@H](N)CCCCNC(=O)[C@@H](N)CCCCNC(=O)CC[C@H](NC(=O)CCCCCCCCCCCCCCCCC(=O)O)C(=O)O)C(=O)N[C@@H](CCC(N)=O)C(=O)N[C@@H](C)C(=O)N[C@@H](C)C(=O)N[C@@H](CCCNC(=N)N)C(=O)N[C@@H](CCC(=O)O)C(=O)N[C@@H](Cc1ccccc1)C(=O)N[C@H](C(=O)N[C@@H](CC(N)=O)C(=O)N[C@@H](Cc1c[nH]c2ccccc12)C(=O)N[C@@H](CC(C)C)C(=O)N[C@@H](CC(C)C)C(=O)N[C@@H](C)C(=O)NCC(=O)NCC(=O)N1CCC[C@H]1C(=O)N[C@@H](CO)C(=O)N[C@@H](CO)C(=O)NCC(=O)N[C@@H](C)C(=O)N1CCC[C@H]1C(=O)N1CCC[C@H]1C(=O)N1CCC[C@H]1C(=O)N[C@@H](CO)C(=O)O)C(C)C) [Compound No. 22]	2.8	170	6.2	169
Y[Aib]EGTFTSDYSYYLEK([εLys-εLys-γGlu-C20 diacid])QAAQEFVNWLLAGGPSSGAPPPS-NH2 (N-terminus assumed; SMILES CC(C)C[C@H](NC(=O)[C@H](CC(C)C)NC(=O)[C@H](Cc1c[nH]c2ccccc12)NC(=O)[C@H](CC(N)=O)NC(=O)[C@@H](NC(=O)[C@H](Cc1ccccc1)NC(=O)[C@H](CCC(=O)O)NC(=O)[C@H](CCC(N)=O)NC(=O)[C@H](C)NC(=O)[C@H](C)NC(=O)[C@H](CCC(N)=O)NC(=O)[C@H](CCCCNC(=O)[C@@H](N)CCCCNC(=O)[C@@H](N)CCCCNC(=O)CC[C@H](NC(=O)CCCCCCCCCCCCCCCCCCC(=O)O)C(=O)O)NC(=O)[C@H](CCC(=O)O)NC(=O)[C@H](CC(C)C)NC(=O)[C@H](Cc1ccc(O)cc1)NC(=O)[C@H](Cc1ccc(O)cc1)NC(=O)[C@H](CO)NC(=O)[C@H](Cc1ccc(O)cc1)NC(=O)[C@H](CC(=O)O)NC(=O)[C@H](CO)NC(=O)[C@@H](NC(=O)[C@H](Cc1ccccc1)NC(=O)[C@@H](NC(=O)CNC(=O)[C@H](CCC(=O)O)NC(=O)C(C)(C)NC(=O)[C@@H](N)Cc1ccc(O)cc1)[C@@H](C)O)[C@@H](C)O)C(C)C)C(=O)N[C@@H](C)C(=O)NCC(=O)NCC(=O)N1CCC[C@H]1C(=O)N[C@@H](CO)C(=O)N[C@@H](CO)C(=O)NCC(=O)N[C@@H](C)C(=O)N1CCC[C@H]1C(=O)N1CCC[C@H]1C(=O)N1CCC[C@H]1C(=O)N[C@@H](CO)C(N)=O) [Compound No. 2]	6	900	3.8	275
Y[Aib]EGTFTSDYSIYLEK([εLys-εLys-γGlu-C18 diacid])QAAREFIEWLLAGGPSSGAPPPS-OH (N-terminus assumed; SMILES CC[C@H](C)[C@H](NC(=O)[C@H](Cc1ccccc1)NC(=O)[C@H](CCC(=O)O)NC(=O)[C@H](CCCNC(=N)N)NC(=O)[C@H](C)NC(=O)[C@H](C)NC(=O)[C@H](CCC(N)=O)NC(=O)[C@H](CCCCNC(=O)[C@@H](N)CCCCNC(=O)[C@@H](N)CCCCNC(=O)CC[C@H](NC(=O)CCCCCCCCCCCCCCCCC(=O)O)C(=O)O)NC(=O)[C@H](CCC(=O)O)NC(=O)[C@H](CC(C)C)NC(=O)[C@H](Cc1ccc(O)cc1)NC(=O)[C@@H](NC(=O)[C@H](CO)NC(=O)[C@H](Cc1ccc(O)cc1)NC(=O)[C@H](CC(=O)O)NC(=O)[C@H](CO)NC(=O)[C@@H](NC(=O)[C@H](Cc1ccccc1)NC(=O)[C@@H](NC(=O)CNC(=O)[C@H](CCC(=O)O)NC(=O)C(C)(C)NC(=O)[C@@H](N)Cc1ccc(O)cc1)[C@@H](C)O)[C@@H](C)O)[C@@H](C)CC)C(=O)N[C@@H](CCC(=O)O)C(=O)N[C@@H](Cc1c[nH]c2ccccc12)C(=O)N[C@@H](CC(C)C)C(=O)N[C@@H](CC(C)C)C(=O)N[C@@H](C)C(=O)NCC(=O)NCC(=O)N1CCC[C@H]1C(=O)N[C@@H](CO)C(=O)N[C@@H](CO)C(=O)NCC(=O)N[C@@H](C)C(=O)N1CCC[C@H]1C(=O)N1CCC[C@H]1C(=O)N1CCC[C@H]1C(=O)N[C@@H](CO)C(=O)O) [Compound No. 9]	3.8	279	–	–
Y[Aib]EGTFTSDYSILLEK([εLys-εLys-γGlu-C18 diacid])QAAQEFINWLLAGGPSSGAPPPS-OH (N-terminus assumed; SMILES CC[C@H](C)[C@H](NC(=O)[C@H](Cc1ccccc1)NC(=O)[C@H](CCC(=O)O)NC(=O)[C@H](CCC(N)=O)NC(=O)[C@H](C)NC(=O)[C@H](C)NC(=O)[C@H](CCC(N)=O)NC(=O)[C@H](CCCCNC(=O)[C@@H](N)CCCCNC(=O)[C@@H](N)CCCCNC(=O)CC[C@H](NC(=O)CCCCCCCCCCCCCCCCC(=O)O)C(=O)O)NC(=O)[C@H](CCC(=O)O)NC(=O)[C@H](CC(C)C)NC(=O)[C@H](CC(C)C)NC(=O)[C@@H](NC(=O)[C@H](CO)NC(=O)[C@H](Cc1ccc(O)cc1)NC(=O)[C@H](CC(=O)O)NC(=O)[C@H](CO)NC(=O)[C@@H](NC(=O)[C@H](Cc1ccccc1)NC(=O)[C@@H](NC(=O)CNC(=O)[C@H](CCC(=O)O)NC(=O)C(C)(C)NC(=O)[C@@H](N)Cc1ccc(O)cc1)[C@@H](C)O)[C@@H](C)O)[C@@H](C)CC)C(=O)N[C@@H](CC(N)=O)C(=O)N[C@@H](Cc1c[nH]c2ccccc12)C(=O)N[C@@H](CC(C)C)C(=O)N[C@@H](CC(C)C)C(=O)N[C@@H](C)C(=O)NCC(=O)NCC(=O)N1CCC[C@H]1C(=O)N[C@@H](CO)C(=O)N[C@@H](CO)C(=O)NCC(=O)N[C@@H](C)C(=O)N1CCC[C@H]1C(=O)N1CCC[C@H]1C(=O)N1CCC[C@H]1C(=O)N[C@@H](CO)C(=O)O) [Compound No. 24]	12.1	490	3.9	115

— US20230272029A1, “CO-AGONISTS AT GLP-1 AND GIP RECEPTORS SUITABLE FOR ORAL DELIVERY” (Novo Nordisk A/S, priority 2020, published 2023)
